Tests used:
Assay in all cases: IP/MS, LZTR1 wild type-FLAG, U87
POLR1A = POLR1A (human, UniProt O95602 1-1720)
Summary of the method: (§1)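 Extracted peptides in 3% acetonitrile/0.1% formic acid ran on a 50 cm C18 column into an Orbitrap Fusion, with MaxQuant identification and spectral counting.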

BUB1 = BUB1 (human, UniProt O43683 1-1085, limits assumed)
Summary of the method: as §1

ASXL1 = ASXL1 (human, UniProt Q8IXJ9 1-1541, limits assumed)
Summary of the method: as §1

WDR6 = target: T1, WDR6 (human, UniProt Q9NNW5 1-1121)
T1 sequence (looked up): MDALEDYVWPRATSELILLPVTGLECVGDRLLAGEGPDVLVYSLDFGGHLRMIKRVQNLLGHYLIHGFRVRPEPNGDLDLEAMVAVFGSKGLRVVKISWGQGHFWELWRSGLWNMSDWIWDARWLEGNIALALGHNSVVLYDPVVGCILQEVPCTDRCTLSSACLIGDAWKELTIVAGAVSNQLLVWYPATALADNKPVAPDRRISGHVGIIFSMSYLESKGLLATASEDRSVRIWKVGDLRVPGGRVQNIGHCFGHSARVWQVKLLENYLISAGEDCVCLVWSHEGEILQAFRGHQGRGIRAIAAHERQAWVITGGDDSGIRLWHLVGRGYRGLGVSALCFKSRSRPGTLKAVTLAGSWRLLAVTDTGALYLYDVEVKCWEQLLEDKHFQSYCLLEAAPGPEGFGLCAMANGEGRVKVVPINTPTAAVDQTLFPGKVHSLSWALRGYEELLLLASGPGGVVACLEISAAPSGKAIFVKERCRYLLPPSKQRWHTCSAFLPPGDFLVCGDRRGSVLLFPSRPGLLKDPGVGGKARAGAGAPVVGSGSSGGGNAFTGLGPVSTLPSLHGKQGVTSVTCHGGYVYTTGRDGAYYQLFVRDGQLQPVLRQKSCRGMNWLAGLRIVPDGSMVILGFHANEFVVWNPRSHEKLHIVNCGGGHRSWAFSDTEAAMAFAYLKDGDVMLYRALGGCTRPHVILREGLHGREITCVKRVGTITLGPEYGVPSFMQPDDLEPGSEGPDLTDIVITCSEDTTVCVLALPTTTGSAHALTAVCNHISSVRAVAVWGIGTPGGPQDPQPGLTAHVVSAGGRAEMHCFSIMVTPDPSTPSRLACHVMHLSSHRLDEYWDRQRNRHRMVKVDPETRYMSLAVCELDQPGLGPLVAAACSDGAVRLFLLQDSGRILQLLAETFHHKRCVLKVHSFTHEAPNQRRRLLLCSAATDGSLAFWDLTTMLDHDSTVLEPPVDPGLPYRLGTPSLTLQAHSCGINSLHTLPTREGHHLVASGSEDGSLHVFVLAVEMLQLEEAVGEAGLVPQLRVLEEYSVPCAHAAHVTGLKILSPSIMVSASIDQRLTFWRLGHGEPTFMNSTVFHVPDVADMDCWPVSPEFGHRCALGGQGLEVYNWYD
Summary of the method: as §1

Measured: binding result

Sequence of ASXL1 (Q8IXJ9 whole entry): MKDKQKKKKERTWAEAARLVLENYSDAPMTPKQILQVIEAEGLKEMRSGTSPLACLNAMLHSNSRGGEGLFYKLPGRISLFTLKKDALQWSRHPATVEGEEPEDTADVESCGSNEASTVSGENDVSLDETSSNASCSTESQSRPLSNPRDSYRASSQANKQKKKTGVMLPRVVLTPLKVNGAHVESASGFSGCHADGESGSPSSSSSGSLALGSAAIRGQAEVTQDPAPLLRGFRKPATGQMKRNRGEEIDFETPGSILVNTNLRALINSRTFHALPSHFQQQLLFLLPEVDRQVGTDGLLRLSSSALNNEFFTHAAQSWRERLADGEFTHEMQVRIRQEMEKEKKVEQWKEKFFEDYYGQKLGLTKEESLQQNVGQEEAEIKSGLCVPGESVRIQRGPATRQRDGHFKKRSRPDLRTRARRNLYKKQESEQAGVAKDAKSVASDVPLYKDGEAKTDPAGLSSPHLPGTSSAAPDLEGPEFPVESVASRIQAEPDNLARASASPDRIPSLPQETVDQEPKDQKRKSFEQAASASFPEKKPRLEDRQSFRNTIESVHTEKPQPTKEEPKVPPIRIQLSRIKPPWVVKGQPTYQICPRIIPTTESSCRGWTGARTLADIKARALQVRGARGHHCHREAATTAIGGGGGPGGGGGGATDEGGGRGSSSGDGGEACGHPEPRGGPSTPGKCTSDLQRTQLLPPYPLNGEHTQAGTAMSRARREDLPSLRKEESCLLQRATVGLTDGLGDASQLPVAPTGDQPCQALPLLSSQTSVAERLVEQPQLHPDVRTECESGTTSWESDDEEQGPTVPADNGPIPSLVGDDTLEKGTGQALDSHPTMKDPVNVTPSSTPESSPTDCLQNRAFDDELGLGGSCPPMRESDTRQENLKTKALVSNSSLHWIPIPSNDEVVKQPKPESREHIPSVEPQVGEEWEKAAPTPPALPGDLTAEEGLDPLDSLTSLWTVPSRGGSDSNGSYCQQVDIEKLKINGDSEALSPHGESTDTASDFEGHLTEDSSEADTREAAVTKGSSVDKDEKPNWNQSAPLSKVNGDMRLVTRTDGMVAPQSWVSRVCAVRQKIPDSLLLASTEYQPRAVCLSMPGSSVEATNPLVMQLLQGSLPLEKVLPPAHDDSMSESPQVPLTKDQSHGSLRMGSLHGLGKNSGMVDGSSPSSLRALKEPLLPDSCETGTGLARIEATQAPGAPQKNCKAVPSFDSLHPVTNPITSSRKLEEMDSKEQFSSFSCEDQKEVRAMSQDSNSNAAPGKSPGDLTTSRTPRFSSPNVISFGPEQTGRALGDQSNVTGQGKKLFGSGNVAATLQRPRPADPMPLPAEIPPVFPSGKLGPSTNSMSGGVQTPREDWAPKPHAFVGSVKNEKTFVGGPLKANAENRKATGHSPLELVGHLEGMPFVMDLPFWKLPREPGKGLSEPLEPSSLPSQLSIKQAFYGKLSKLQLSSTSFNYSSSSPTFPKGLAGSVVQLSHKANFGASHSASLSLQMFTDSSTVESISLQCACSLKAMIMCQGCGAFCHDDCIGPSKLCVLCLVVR
Sequence of BUB1 (O43683 whole entry): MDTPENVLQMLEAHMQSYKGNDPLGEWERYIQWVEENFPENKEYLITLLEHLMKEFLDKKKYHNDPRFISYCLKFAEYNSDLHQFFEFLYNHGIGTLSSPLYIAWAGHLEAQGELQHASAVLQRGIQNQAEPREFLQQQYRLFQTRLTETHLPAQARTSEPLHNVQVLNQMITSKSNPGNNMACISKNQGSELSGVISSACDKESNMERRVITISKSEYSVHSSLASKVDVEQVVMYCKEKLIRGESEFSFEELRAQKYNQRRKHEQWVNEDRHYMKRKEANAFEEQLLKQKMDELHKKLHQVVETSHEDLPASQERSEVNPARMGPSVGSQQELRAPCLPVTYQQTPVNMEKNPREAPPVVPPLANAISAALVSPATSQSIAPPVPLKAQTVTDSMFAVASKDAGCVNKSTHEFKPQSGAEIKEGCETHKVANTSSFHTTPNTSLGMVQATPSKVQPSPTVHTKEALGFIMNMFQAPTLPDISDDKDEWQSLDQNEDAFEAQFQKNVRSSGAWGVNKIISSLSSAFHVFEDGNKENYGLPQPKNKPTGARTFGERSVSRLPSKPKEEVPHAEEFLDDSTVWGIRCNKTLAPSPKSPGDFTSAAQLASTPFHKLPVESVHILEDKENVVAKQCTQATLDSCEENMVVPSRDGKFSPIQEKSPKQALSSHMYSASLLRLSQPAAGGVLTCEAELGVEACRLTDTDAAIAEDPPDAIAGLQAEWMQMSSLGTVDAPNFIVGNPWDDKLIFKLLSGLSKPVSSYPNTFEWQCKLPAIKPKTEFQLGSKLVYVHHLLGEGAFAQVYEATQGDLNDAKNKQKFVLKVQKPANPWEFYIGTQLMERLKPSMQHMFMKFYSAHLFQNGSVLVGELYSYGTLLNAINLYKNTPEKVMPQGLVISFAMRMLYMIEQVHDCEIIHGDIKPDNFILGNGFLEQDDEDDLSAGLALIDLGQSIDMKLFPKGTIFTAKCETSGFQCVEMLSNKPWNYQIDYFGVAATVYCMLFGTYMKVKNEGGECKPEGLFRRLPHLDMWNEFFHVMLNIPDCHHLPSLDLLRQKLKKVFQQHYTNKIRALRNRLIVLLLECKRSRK
Sequence of POLR1A (O95602 whole entry, the tested form may be a part): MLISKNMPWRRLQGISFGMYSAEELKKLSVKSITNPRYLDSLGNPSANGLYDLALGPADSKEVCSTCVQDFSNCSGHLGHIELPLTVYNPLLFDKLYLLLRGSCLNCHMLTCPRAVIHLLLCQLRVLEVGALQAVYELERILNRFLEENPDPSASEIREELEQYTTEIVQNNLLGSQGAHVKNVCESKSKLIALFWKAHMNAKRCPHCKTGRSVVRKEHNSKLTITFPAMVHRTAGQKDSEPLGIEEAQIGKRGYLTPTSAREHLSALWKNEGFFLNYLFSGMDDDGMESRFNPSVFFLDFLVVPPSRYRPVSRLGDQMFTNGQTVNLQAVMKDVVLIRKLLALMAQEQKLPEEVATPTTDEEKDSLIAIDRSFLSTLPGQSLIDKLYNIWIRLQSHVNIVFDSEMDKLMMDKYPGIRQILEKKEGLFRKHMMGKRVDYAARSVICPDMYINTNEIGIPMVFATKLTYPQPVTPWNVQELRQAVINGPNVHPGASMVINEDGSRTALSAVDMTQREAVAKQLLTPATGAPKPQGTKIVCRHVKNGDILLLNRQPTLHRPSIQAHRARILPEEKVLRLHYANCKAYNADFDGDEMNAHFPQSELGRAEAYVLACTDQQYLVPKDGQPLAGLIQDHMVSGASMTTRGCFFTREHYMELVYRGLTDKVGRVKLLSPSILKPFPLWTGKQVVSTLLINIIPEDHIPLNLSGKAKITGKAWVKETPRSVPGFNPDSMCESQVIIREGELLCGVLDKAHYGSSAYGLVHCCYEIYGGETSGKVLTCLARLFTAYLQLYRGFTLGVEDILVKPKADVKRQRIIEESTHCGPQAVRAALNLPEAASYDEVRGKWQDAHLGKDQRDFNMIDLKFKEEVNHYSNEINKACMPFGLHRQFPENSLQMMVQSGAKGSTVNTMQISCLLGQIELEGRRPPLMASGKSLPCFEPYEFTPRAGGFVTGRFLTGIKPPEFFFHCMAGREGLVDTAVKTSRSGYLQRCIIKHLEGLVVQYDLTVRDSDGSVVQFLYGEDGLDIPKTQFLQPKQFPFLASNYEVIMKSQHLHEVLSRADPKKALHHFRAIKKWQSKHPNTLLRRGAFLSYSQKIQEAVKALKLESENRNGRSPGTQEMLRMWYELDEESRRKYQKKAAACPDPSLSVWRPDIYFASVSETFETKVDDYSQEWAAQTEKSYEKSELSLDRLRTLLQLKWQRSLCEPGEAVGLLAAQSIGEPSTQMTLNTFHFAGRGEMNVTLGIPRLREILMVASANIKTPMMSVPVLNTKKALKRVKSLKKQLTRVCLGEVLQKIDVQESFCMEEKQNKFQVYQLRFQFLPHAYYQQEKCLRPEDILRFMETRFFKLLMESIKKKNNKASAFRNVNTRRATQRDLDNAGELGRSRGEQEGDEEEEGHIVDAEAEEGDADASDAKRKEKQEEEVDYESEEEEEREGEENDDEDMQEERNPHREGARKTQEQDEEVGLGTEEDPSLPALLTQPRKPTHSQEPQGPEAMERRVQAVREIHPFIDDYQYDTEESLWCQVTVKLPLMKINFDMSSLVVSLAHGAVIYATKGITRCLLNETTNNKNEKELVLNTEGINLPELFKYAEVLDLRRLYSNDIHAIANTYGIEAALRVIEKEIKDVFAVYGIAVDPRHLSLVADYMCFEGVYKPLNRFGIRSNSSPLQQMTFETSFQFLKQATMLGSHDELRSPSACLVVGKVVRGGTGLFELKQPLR

B1: LZTR1-FLAG (other, human, UniProt Q8N653 1-840, looked up)
chain: MAGPGSTGGQIGAAALAGGARSKVAPSVDFDHSCSDSVEYLTLNFGPFETVHRWRRLPPCDEFVGARRSKHTVVAYKDAIYVFGGDNGKTMLNDLLRFDVKDCSWCRAFTTGTPPAPRYHHSAVVYGSSMFVFGGYTGDIYSNSNLKNKNDLFEYKFATGQWTEWKIEGRLPVARSAHGATVYSDKLWIFAGYDGNARLNDMWTIGLQDRELTCWEEVAQSGEIPPSCCNFPVAVCRDKMFVFSGQSGAKITNNLFQFEFKDKTWTRIPTEHLLRGSPPPPQRRYGHTMVAFDRHLYVFGGAADNTLPNELHCYDVDFQTWEVVQPSSDSEVGGAEVPERACASEEVPTLTYEERVGFKKSRDVFGLDFGTTSAKQPTQPASELPSGRLFHAAAVISDAMYIFGGTVDNNIRSGEMYRFQFSCYPKCTLHEDYGRLWESRQFCDVEFVLGEKEECVQGHVAIVTARSRWLRRKITQARERLAQKLEQEAAPVPREAPGVAAGGARPPLLHVAIREAEARPFEVLMQFLYTDKIKYPRKGHVEDVLLIMDVYKLALSFQLCRLEQLCRQYIEASVDLQNVLVVCESAARLQLSQLKEHCLNFVVKESHFNQVIMMKEFERLSSPLIVEIVRRKQQPPPRTPLDQPVDIGTSLIQDMKAYLEGAGAEFCDITLLLDGHPRPAHKAILAARSSYFEAMFRSFMPEDGQVNISIGEMVPSRQAFESMLRYIYYGEVNMPPEDSLYLFAAPYYYGFYNNRLQAYCKQNLEMNVTVQNVLQILEAADKTQALDMKRHCLHIIVHQFTKVSKLPTLRSLSQQLLLDIIDSLASHISDKQCAELGADI
notes: Expressed in HEK 293T, HeLa or U87 cells; used as cell lysate; also called LZTR1 wild type-FLAG; LZTR1 WT; not shown: FLAG tag at the C-terminus
binds: all assays above
